Measured values taken from patent publication US20210214447A1 (SHANGHAI INSTITUTE OF MATERIA MEDICA CHINESE ACADEMY OF …, published 2021).
Blank lines part the entries; values can stand above or below the binder they belong to.

Legend:
[1] = target: T1, extracellular domain of human AXL protein (AXL-ECD) (human, UniProt P30530 31-449); assay: ELISA, AXL-ECD
T1 construct: expressed in HEK293T cells; coated on the ELISA plate; also called AXL-ECD protein; human AXL extracellular domain protein
T1 sequence: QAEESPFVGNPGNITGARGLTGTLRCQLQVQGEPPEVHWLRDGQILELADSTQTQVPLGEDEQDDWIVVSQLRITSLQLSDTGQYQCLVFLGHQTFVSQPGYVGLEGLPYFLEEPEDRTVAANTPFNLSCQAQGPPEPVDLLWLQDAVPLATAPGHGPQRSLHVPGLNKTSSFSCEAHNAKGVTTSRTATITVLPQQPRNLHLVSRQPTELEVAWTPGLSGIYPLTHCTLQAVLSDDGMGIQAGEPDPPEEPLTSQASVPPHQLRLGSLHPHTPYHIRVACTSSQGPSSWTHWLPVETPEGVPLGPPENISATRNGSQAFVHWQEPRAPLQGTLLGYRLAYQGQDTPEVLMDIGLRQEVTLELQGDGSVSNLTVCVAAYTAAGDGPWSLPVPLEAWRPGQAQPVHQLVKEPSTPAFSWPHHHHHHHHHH

[2] = target: T2, human AXL on the surface of tumor cells (human, UniProt P30530 26-894); assay: FACS on MDA-MB-231 cells, mean EC50
T2 construct: whole, on cells; endogenous protein of human tumor cell lines; the cell line is named under assay or readout; also called AXL on the cell surface
T2 sequence (looked up): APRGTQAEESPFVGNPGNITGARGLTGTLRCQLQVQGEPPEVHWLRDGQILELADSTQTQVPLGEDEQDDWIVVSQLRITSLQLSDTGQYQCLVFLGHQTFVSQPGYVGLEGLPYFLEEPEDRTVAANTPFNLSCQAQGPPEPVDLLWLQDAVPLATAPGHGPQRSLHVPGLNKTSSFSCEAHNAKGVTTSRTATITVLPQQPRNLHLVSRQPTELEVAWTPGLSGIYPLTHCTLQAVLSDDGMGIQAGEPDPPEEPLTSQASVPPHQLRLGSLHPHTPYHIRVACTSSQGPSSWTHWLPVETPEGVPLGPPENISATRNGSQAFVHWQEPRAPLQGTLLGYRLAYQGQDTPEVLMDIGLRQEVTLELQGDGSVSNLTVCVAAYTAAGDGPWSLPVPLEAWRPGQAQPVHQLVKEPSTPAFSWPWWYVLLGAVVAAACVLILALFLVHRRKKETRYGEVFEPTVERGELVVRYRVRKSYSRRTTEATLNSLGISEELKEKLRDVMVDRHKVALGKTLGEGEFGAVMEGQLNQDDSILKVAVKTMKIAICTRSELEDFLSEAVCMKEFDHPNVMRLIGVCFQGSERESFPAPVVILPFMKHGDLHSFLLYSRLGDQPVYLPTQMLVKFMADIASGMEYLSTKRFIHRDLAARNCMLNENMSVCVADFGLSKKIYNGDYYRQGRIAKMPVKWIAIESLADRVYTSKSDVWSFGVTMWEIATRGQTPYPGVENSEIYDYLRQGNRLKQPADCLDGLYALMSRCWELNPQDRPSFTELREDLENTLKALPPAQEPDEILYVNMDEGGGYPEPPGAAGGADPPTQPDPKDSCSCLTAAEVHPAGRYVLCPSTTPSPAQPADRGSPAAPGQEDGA
Procedure: (§1) Then the obtained solutions were incubated at 4° C. for 1 h, the cells were washed twice with PBS to remove unbound primary antibody, and then the target cells were incubated with 200 μL PE-labeled secondary antibody (2 μg/mL) at 4° C. for 30 min. The cells were washed twice with PBS to remove unbound secondary antibody. Finally, the cells were resuspended in 200 μL PBS, and the binding affinity of the test antibody to AXL on the cell surface was determined by a flow cytometer (FACSCalibur)

[3] = target: T2, human AXL on the surface of tumor cells; assay: FACS on NCI-H1299 cells
Procedure: as §1
AXL-high-expression lung cancer cells NCI-H1299 were used as target cells. 100 μL of the test antibody diluted in a 3-fold gradient was used as primary antibody, and mixed with 1×10⁵ NCI-H1299 cells suspended in 100 μL RPMI-1640 serum-free medium. The operation method was the same as above. Finally, the cells were resuspended in 200 μL PBS, and the binding affinity of the tested antibody to AXL on the cell surface was determined by a flow cytometer (FACSAria II).

[4] = target: T1, extracellular domain of human AXL …; assay: ELISA, plate-coated AXL-ECD
Procedure: The extracellular domain of AXL protein (AXL-ECD) was diluted to […] with the coating solution, and coated onto ELISA plate with 100 μL/well at 4° C. overnight. The excess antigen was washed off. The plate was blocked with 1% BSA at room temperature for 2 h, then each monoclonal antibody in a 3-fold dilution was added at 100 µL/well. The plate was incubated at room temperature for 1 h; the unbound antibody was washed off, and appropriate concentration of anti-mouse secondary antibody labeled with horseradish peroxidase was added at 100 µL/well. The plate was incubated at room temperature for 0.5 h. The unbound secondary antibody was washed off. TMB Substrate was added and reacted for about 15 minutes. 1N HCL was added at 50 µL/well to stop the color reaction. Then the absorbance was measured at 450 nm and the obtained data was analyzed.

[5] = target: T2, human AXL on the surface of tumor cells; assay: FACS on MDA-MB-231 cells
Procedure: as §1

[6] = target: T2, human AXL on the surface of tumor cells; assay: FACS on LCLC-103H cells
Procedure: as §1
The experimental method was referred to Example 8.

EC50 [1]: 0.063 nM
B1: mAb002 (antibody, V domains shown)
VH: QIQLQQSGPELVKPGASVKISCKASGYPFTDFYINWVKQKPGQGLEWIGWIYPGSGNTKYNEKFKGKATLTVDTSSSTAYMQLSSLTSEDTAVYFCARSTGFFDYWGQGTTLTVSS
VL: QIVLTQSPALMSASPGEKVTMTCSASSSIGYMYWYQQKPRSSPKSWIYLTSNLASGVPARFSGSGSGTSYSLTISSMEAEDAATYYCQQWSSNPPTFGAGTKLELK
notes: murine hybridoma antibody, IgG1/k; also called original murine antibody mAb002

EC50 [2]: 0.433 nM
EC50 [3]: 0.655 nM
Highest MFI value (FACSAria II) [3]: 2010 MFI
EC50 [4]: 0.075 nM
Highest reading (OD450 nm) [4]: 3.77 OD450 nm
Highest MFI value (FACSCalibur) [5]: 218 MFI
EC50 [6]: 0.8 nM
B2: AXL107 (antibody, V domains shown)
VH: EVQLLESGGGLVQPGGSLRLSCAASGFTFSSYAMNWVRQAPGKGLEWVSTTSGSGASTYYADSVKGRFTISRDNSKNTLYLQMNSLRAEDTAVYYCAKIWIAFDIWGQGTMVTV
VL: not shown
notes: also called control antibody AXL107; AXL07

EC50 [1]: 0.092 nM
B3: mAb005 (antibody, V domains shown)
VH: QVQLQQSGPELVKPGASVKISCKASGYSFTSYYIHWVQQRPGQGLEWIGWIYPGSDNTKYNEKFKDKATLTADTSSGTAYMQLSSLTSDDSAVFYCARNYYDYDGGTWFPYWGQGTLVTVSA
VL: DIQMTQTTSSLSASLGDRVTISCRASQDINYYLNWYQQKPDGTVKLLIYYTSRLHSRVPSRFSGSGSGTDYSLTISNLEQEDIATYFCQQGNTLPWTFGGGTKLEIK
notes: murine hybridoma antibody, IgG1/k; also called original murine antibody mAb005

EC50 [2]: 0.4 nM
EC50 [3]: 0.908 nM
Highest MFI value (FACSAria II) [3]: 2140 MFI
EC50 [4]: 0.103 nM
Highest reading (OD450 nm) [4]: 3.78 OD450 nm
Highest MFI value (FACSCalibur) [5]: 208 MFI
B4: mAb005c (antibody, V domains shown)
VH: B3 VH
VL: B3 VL
notes: also called human-mouse chimeric antibody mAb005c

EC50 [1]: 0.073 nM
B5: mAb001 (antibody, V domains shown)
VH: AVQLQESGPSLVKPSQTLSLTCSVTGDSITSGYWSWIRKFPGNKLESMGYMTYSGATYYNPSLKSRISITRDTSKNQYYLQLNSVTPEDTATYYCARGGNSYFFDYWGQGTTLTVSS
VL: DIQMTQSPASLSVSVGETVTITCRASENIYSNLAWYQLKQGKSPHLLVYAATNLADGVPSRFSGSGSGTQYSLKIISLQSEDFGTYYCQHFWGTPLTFGAGTKLELK
notes: murine hybridoma antibody, IgG1/k; also called original murine antibody mAb001

EC50 [2]: 0.84 nM
EC50 [3]: 1.49 nM
Highest MFI value (FACSAria II) [3]: 2370 MFI
EC50 [4]: 0.092 nM
Highest reading (OD450 nm) [4]: 3.8 OD450 nm
Highest MFI value (FACSCalibur) [5]: 217 MFI
B6: mAb001c (antibody, V domains shown)
VH: B5 VH
VL: B5 VL
notes: also called human-mouse chimeric antibody mAb001c
